The target of assay [1] is T1, IL13Rα2 expressed on tumor cells (U87, U373, U251) (UniProt Q14627 27-380, limits assumed).
T1 sequence (looked up): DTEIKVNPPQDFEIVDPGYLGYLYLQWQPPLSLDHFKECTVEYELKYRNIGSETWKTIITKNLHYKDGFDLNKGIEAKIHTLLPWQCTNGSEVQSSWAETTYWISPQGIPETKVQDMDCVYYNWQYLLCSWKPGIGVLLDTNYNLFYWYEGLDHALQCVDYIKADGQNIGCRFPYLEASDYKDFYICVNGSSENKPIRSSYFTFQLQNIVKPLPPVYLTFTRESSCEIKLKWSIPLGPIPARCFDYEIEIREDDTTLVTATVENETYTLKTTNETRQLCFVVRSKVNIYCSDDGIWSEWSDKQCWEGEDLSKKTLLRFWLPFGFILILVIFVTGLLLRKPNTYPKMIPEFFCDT
Description: cell-based or functional assay.

The target in assay [2] is T2, recombinant IL13Rα2 (Sino biological) (UniProt Q14627 27-343, limits assumed).
T2 construct: Bought protein; construct not described
T2 sequence (looked up): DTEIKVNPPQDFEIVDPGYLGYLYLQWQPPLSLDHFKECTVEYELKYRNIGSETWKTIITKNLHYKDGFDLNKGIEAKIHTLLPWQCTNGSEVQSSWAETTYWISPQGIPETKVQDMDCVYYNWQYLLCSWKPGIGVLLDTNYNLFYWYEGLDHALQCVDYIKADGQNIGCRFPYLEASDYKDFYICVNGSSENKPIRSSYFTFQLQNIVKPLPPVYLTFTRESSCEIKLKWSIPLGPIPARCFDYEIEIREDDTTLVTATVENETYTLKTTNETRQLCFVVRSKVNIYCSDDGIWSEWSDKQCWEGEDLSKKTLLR
Description: binding ELISA, recombinant purified BTE on coated recombinant IL13Rα2. As for the experimental part:
(§1) ELISA plates were coated with either IL13Rα2/IL13Rα1 (Sino biological, […]) or CD3 (Acrobiosystems, 1 μg/ml) overnight at 4C. Blocking was performed with PBST-10% FBS for 1 hour. As primary antibody, supernatants from Expi293F cells transfected with dBTEs was used or pVax as negative control at different dilutions. The cells were incubated at room temperature for 1 hour. Secondary antibody was a goat anti-human fab fragment specific HRP conjugated (Jackson immunoresearch). After 1 hour incubation the blots were developed with TMB solution and read OD at 450 nm. To determine binding kinetics, recombinant BTEs were used at indicated concentrations as primary antibody, and HRP conjugated anti-His tag antibody (Biolegend) or goat anti-mouse fab fragment specific antibody as secondary antibody.

Assay [3] addresses T3, recombinant CD3 protein (Acrobiosystems) (UniProt P07766 23-126).
T3 chain: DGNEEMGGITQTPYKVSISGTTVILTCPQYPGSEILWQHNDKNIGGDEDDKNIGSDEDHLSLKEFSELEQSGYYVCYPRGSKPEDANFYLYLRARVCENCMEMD
Description: ELISA. A general note: An ELISA detects its analyte on a solid surface through an enzyme-linked reagent.

The target in assay [4] is T4, IL13Rα1 expressed on tumor cells (UniProt P78552 22-427, limits assumed).
T4 construct: whole, on cells
T4 sequence (looked up): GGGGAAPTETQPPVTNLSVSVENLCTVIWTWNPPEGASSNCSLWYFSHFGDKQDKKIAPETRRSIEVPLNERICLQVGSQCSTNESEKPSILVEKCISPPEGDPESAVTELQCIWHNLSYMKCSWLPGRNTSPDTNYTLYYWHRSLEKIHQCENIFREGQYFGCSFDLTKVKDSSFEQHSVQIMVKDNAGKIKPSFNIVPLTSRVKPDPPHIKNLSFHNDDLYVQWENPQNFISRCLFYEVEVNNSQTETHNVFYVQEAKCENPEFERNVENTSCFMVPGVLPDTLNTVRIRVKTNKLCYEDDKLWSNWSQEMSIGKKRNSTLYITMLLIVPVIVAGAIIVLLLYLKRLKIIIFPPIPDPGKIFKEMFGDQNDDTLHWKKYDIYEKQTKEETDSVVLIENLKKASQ
Description: binding to tumor cells (method not given).

Assay [5] deals with T5, recombinant IL13Rα1 (Sino biological) (UniProt P78552 22-343, limits assumed).
T5 construct: Bought protein; construct not described
T5 sequence (looked up): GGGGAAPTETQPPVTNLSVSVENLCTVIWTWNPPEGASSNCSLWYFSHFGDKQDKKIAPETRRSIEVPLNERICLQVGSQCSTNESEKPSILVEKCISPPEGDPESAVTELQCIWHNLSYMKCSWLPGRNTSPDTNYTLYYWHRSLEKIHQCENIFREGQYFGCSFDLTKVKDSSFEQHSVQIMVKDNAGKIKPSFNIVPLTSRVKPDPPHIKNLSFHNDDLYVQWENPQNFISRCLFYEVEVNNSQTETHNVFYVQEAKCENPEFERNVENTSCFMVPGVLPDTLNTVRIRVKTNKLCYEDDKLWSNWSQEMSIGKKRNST
Description: binding ELISA, plate coated with IL13Rα1, Expi293F supernatant. As to the method: as §1

The target in assay [6] is T6, recombinant IL13Rα2 (Sino biological) (UniProt Q14627 27-343).
T6 chain: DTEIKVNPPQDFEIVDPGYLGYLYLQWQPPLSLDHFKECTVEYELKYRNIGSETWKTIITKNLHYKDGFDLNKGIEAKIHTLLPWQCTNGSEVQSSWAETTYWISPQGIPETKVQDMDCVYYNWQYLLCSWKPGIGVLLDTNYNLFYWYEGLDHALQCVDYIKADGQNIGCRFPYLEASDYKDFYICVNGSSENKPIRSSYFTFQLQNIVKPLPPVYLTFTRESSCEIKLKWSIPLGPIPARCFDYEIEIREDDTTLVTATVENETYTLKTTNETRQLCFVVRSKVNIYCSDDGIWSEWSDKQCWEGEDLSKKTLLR
Description: ELISA.

B1: PB01-reverse (bispecific antibody)
chain: EVQLVESGGGLVQPGGSLRLSCAASGFSLTKYGVHWVRQAPGKGLEWVGVKWAGGSTDYNSALMSRFTISKDNAKNSLYLQMNSLRAEDTAVYYCARDHRDAMDYWGQGTLVTVSSGGGGSGGGGSGGGGSDIQMTQSPSSLSASVGDRVTITCTASLSVSSTYLHWYQQKPGSSPKLWIYSTSNLASGVPSRFSGSGSGTSYTLTISSLQPEDFATYYCHQYHRSPLTFGGGTKVEIKGGGGSDIQMTQSPSSLSASVGDRVTITCRASQDIRNYLNWYQQKPGKAPKLLIYYTSRLESGVPSRFSGSGSGTDYTLTISSLQPEDFATYYCQQGNTLPWTFGQGTKVEIKSGGGGSGGGGSGGGGSEVQLVESGGGLVQPGGSLRLSCAASGYSFTGYTMNWVRQAPGKGLEWVALINPYKGVSTYNQKFKDRFTISVDKSKNTAYLQMNSLRAEDTAVYYCARSGYYGDSDWYFDVWGQGTLVTVSS
Take B1: in assay [1], the “EC50 of killing of U87-GFP-Luc cells, 48h luciferase killing assay with recombinant BTE and primary human T cells” value (shortened to “EC50 of killing of U87-GFP-Luc cells”) was about 0.1 ng/mL.

B2: PB01-forward (bispecific antibody)
chain: DIQMTQSPSSLSASVGDRVTITCTASLSVSSTYLHWYQQKPGSSPKLWIYSTSNLASGVPSRFSGSGSGTSYTLTISSLQPEDFATYYCHQYHRSPLTFGGGTKVEIKGGGGSGGGGSGGGGSEVQLVESGGGLVQPGGSLRLSCAASGFSLTKYGVHWVRQAPGKGLEWVGVKWAGGSTDYNSALMSRFTISKDNAKNSLYLQMNSLRAEDTAVYYCARDHRDAMDYWGQGTLVTVSSGGGGSEVQLVESGGGLVQPGGSLRLSCAASGYSFTGYTMNWVRQAPGKGLEWVALINPYKGVSTYNQKFKDRFTISVDKSKNTAYLQMNSLRAEDTAVYYCARSGYYGDSDWYFDVWGQGTLVTVSSGGGGSGGGGSGGGGSDIQMTQSPSSLSASVGDRVTITCRASQDIRNYLNWYQQKPGKAPKLLIYYTSRLESGVPSRFSGSGSGTDYTLTISSLQPEDFATYYCQQGNTLPWTFGQGTKVEIKS
notes: Single-chain bispecific T cell engager, VL-VH-VH-VL format: humanized anti-IL13Rα2 scFv fused by GS linker to a modified UCHT1 anti-CD3 scFv; Tested as Expi293F transfection supernatant and as a recombinant purified version, detected with anti-His tag antibody; also called PB07-2134
For B2, in assay [1], the “EC50 of killing of U87-GFP-Luc cells” value is about 0.1 ng/mL. Further, the IC50 – broadly, the midpoint of a concentration-inhibition curve – in assay [2] is 21.2 ng/mL.

B3: PB02-forward (bispecific antibody)
chain: DIQMTQSPSSLSASVGDRVTITCKASQDVGTAVAWYQQKPGKAPKLLIYSASYRSTGVPSRFSGSGSGTDFTLTISSLQPEDFATYYCQHHYSAPWTFGGGTKVEIKGGGGSGGGGSGGGGSEVQLVESGGGLVQPGGSLRLSCAASGFTFSRNGMSWVRQAPGKGLEWVATVSSGGSYIYYADSVKGRFTISRDNAKNSLYLQMNSLRAEDTAVYYCARQGTTALATRFFDVWGQGTLVTVSSGGGGSEVQLVESGGGLVQPGGSLRLSCAASGYSFTGYTMNWVRQAPGKGLEWVALINPYKGVSTYNQKFKDRFTISVDKSKNTAYLQMNSLRAEDTAVYYCARSGYYGDSDWYFDVWGQGTLVTVSSGGGGSGGGGSGGGGSDIQMTQSPSSLSASVGDRVTITCRASQDIRNYLNWYQQKPGKAPKLLIYYTSRLESGVPSRFSGSGSGTDYTLTISSLQPEDFATYYCQQGNTLPWTFGQGTKVEIKS
notes: Single-chain bispecific T cell engager, VL-VH-VH-VL format: second humanized anti-IL13Rα2 clone fused by GS linker to a modified UCHT1 anti-CD3 scFv; Tested as Expi293F supernatant and as a recombinant purified version; also called PB08-2134
In the case of B3, in assay [1], the “EC50 of killing of U87-GFP-Luc cells” value is about 0.1 ng/mL. Besides, the IC50 in assay [3] was 11.2 ng/mL; in assay [2], 4.2 ng/mL. Moreover, the binding result in assay [4] and in assay [5] was “no binding” in each case.

B4: PB02-reverse (bispecific antibody)
chain: EVQLVESGGGLVQPGGSLRLSCAASGFTFSRNGMSWVRQAPGKGLEWVATVSSGGSYIYYADSVKGRFTISRDNAKNSLYLQMNSLRAEDTAVYYCARQGTTALATRFFDVWGQGTLVTVSSGGGGSGGGGSGGGGSDIQMTQSPSSLSASVGDRVTITCKASQDVGTAVAWYQQKPGKAPKLLIYSASYRSTGVPSRFSGSGSGTDFTLTISSLQPEDFATYYCQHHYSAPWTFGGGTKVEIKGGGGSDIQMTQSPSSLSASVGDRVTITCRASQDIRNYLNWYQQKPGKAPKLLIYYTSRLESGVPSRFSGSGSGTDYTLTISSLQPEDFATYYCQQGNTLPWTFGQGTKVEIKSGGGGSGGGGSGGGGSEVQLVESGGGLVQPGGSLRLSCAASGYSFTGYTMNWVRQAPGKGLEWVALINPYKGVSTYNQKFKDRFTISVDKSKNTAYLQMNSLRAEDTAVYYCARSGYYGDSDWYFDVWGQGTLVTVSS
notes: Single-chain bispecific T cell engager, VH-VL-VL-VH format: second humanized anti-IL13Rα2 clone fused by GS linker to a modified UCHT1 anti-CD3 scFv; Tested as Expi293F supernatant and as a recombinant purified version; also called PB08-1243
B4: in assay [1], the “EC50 of killing of U87-GFP-Luc cells” value was about 0.1 ng/mL. For the same molecule, the values for the IC50 in assay [6] and in assay [3] were 9.3 ng/mL and 0.41 ng/mL, respectively. The binding result in assay [4] and in assay [5] was “no binding” throughout.

(Values after patent US20240158521A1 (WISTAR INSTITUTE OF ANATOMY AND BIOLOGY, published 2024).)
